Results from patent US20180193413A1 (UNIVERSITY OF BRITISH COLUMBIA, published 2018).
Positions count from the first letter of the chain named. Numbers in names are those of the source. Bridges are numbered along the chain shown (N, C = ends). Where no end group is shown, it is not given here.

T1: Porcine pancreatic α-amylase (porcine, UniProt P00690 16-511)
T1 construct: Bought enzyme; also called PPA
T1 sequence: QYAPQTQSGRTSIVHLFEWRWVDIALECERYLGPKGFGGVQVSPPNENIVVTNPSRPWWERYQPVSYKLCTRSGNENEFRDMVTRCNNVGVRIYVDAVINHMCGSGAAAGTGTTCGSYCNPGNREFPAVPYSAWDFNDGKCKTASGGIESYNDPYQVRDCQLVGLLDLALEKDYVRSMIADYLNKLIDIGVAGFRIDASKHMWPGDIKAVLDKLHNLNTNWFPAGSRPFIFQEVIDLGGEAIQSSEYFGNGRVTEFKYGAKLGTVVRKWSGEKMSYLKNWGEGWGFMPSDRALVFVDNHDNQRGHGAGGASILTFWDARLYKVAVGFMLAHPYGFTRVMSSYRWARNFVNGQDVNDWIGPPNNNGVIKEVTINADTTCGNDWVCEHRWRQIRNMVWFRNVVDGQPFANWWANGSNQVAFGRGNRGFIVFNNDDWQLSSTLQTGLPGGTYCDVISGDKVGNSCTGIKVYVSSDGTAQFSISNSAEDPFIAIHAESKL

T2: Human pancreatic α-amylase (human, UniProt P04746 16-511)
T2 construct: Recombinant, secreted from Pichia pastoris, purified and deglycosylated; also called HPA; human pancreatic alpha amylase
T2 sequence: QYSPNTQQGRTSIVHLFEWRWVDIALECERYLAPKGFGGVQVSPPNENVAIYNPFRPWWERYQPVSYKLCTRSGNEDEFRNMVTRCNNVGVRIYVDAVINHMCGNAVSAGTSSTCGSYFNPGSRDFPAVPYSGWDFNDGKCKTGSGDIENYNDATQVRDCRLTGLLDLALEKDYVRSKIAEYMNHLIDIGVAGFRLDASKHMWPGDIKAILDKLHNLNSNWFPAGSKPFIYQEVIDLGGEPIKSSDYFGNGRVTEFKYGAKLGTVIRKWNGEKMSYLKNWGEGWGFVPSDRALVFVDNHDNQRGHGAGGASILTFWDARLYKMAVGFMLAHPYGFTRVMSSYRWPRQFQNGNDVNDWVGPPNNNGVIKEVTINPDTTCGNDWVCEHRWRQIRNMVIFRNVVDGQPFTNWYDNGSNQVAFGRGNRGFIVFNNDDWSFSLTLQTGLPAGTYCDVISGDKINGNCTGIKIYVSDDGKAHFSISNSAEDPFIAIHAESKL

T3: T163R HPA mutant (human, UniProt P04746 16-511)
T3 construct: it may be shifted against the precursor entry
T3 sequence: T2 sequence with T163R

B1: Helianthamide (peptide)
peptide: ESGNSCYIYHGVSGICKASCAEDEKAMAGMGVCEGHLCCYKTPW
modifications: disulfide 16-33, 20-39, 6-38
notes: 44-residue peptide with three disulfide bonds in a 1-5, 2-4, 3-6 pattern (C6-C38, C16-C33, C20-C39); crystal structure with PPA; also called recombinant Helianthamide; synthetic Helianthamide
B2: bar′-Helianthamide fusion (other)
chain: B1 peptide
modifications: not fully specified (N-terminus); ends and bridges not checked
notes: Uncleaved fusion secreted from E. coli BL21*(DE3), purified on nickel; The text says that the junction is a TEV site; also called barnase′-helianthamide
B3: Bar′-Y7A (other)
chain: B1 peptide with Y7A
modifications: not fully specified (N-terminus); ends and bridges not checked
notes: Tested as uncleaved fusion; also called Y7A mutant of Helianthamide in bar′-Helianthamide fusion form
B4: Bar′-H10A (other)
chain: B1 peptide with H10A
modifications: not fully specified (N-terminus); ends and bridges not checked
notes: Tested as uncleaved fusion; also called H10A mutant of Helianthamide in bar′-Helianthamide fusion form
B5: Bar′-Y9A (other)
chain: B1 peptide with Y9A
modifications: not fully specified (N-terminus); ends and bridges not checked
notes: Tested as uncleaved fusion; also called Y9A mutant of Helianthamide in bar′-Helianthamide fusion form

How the values were obtained:
[1] = molecular target: T1, Porcine pancreatic α-amylase; assay: enzyme kinetics, inhibition of glycosidase activity
[2] = molecular target: T2, Human pancreatic α-amylase; assay: enzyme kinetics (CNP-G3 hydrolysis), Morrison tight-binding fit, competitive inhibition; recombinant helianthamide
T163R HPA mutant [3] = molecular target: T3, T163R HPA mutant; assay: enzyme kinetics, Ki against T163R HPA compared with HPA
[4] = molecular target: T2, Human pancreatic α-amylase; assay: enzyme kinetics (CNP-G3 hydrolysis), uncleaved bar′ fusion
T163R HPA mutant [5] = molecular target: T3, T163R HPA mutant; assay: as above
[6] = molecular target: T2, Human pancreatic α-amylase; assay: enzyme kinetics, Ki of bar′ fusion mutants against HPA

| Binder | Ki [1] [nM] | Ki [2] [nM] | fold decrease in potency (against wild-type HPA) (T163R HPA mutant [3]) [fold] | Ki [4] [nM] | Ki (T163R HPA mutant [5]) [nM] | fold decrease in potency (against the bar′-Helianthamide fusion) [6] [fold] |
| --- | --- | --- | --- | --- | --- | --- |
| B1 | 0.1 | 0.01 | – | – | – | – |
| B2 | – | – | 20 | 0.9 | 20 | – |
| B3 | – | – | – | 5 | 107 | – |
| B4 | – | – | – | 15 | 321 | – |
| B5 | – | – | – | 47 | 960 | 50 |
